Patent US20250361295A1 (published 2025)

B1: NGM831 (antibody, V domains shown)
VH: EVQLQQSGPEVKPGASVKISCKASGYTFTDYNMDWVKQSHGKSEWIGYIYPSNGGTGYNQKFKSKATLTVDKSSNTAYMELHSLTSEDSAVYYCARVPYYDYLYYYAMDYWGQGTSVTVSS
VL: QIVLSQSPAILSASPGEKVTMACRASSSVSFMHWYQQKPGSSPQPWIYATSNLASGVPARFSGSGSGTSYSLTISRVEAEDAATYYCQQWSTNPYMYTFGGGTKLEIK
B2: ch8-B3-F6-H8 (antibody, V domains shown)
VH: EVKVIESGGGLVQPGGSLKLSCAASGFDFSRYWMSWVRQAPGKGLEWIGEINPDSSAINYTPSLKDKFIISRDNAKNTLYLQMSKVRSEDTALYYCATSMTMDYWGQGTSVTVSS
VL: DIVMTQSPSSMYASLGERVTITCKASQDIKSYLSWYQQKPWKSPKTLIYYATSLADGVPSRFSGSGSGQDYSLTISSLESDDTATYYCLQHGESPYTFGGGTKLEK
B3: ch2-H1-D7-E5-D5 (antibody, V domains shown)
VH: EVHLVESGGGLVQPGGSRKLSCAASGFTFSSFGMHWVRQPPEKGLEWVAYISSGSSSIYYADTVKGRFTISRDNPKNTLFLQMTSLRSEDTAMYYCARGTGTGAMDYWGQGTSVTVSS
VL: DIQMTQTTSSLSASLGDRVTISCRTSQDISNYLNWYQQKPDGTVKLLIYYTSKLHSGVPSRFSGSGSGTDYSLTISNLDQEDIATYFCQQGNTLPWTFGGGTKLEIK
B4: h2-H1-D7-E5-D5 (antibody, V domains shown)
VH: EVQLVESGGGLVQPGGSLRLSCAASGFTFSSFGMHWVRQAPGKGLEWVAYISSGSSSIYYADTVKGRFTISRDNAKNSLYLQMNSLRAEDTAVYYCARGTGTGAMDYWGQGTLVTVSS
VL: DIQMTQSPSSLSASVGDRVTITCRTSQDISNYLNWYQQKPGKAPKLLIYYTSKLHSGVPSRFSGSGSGTDFTFTISSLQPEDIATYFCQQGNTLPWTFGGGTKLEIK
B5: h8-B3-F6-H8 (antibody, V domains shown)
VH: EVQLVESGGGLVQPGGSLRLSCAASGFDFSRYWMSWVRQAPGKGLVWIGEINPESSAINYAPSLKDRFTISRDNAKNTLYLQMNSLRAEDTAVYYCATSMTMDYWGQGTLVTVSS
VL: DIQMTQSPSSLSASVGDRVTITCKASQDIKSYLSWYQQKPGKAPKTLIYYATSLAGGVPSRFSGSGSGTDYTLTISSLQPEDFATYYCLQHGESPYTFGGGTKLEIK
B6: IO-202 (antibody, V domains shown)
VH: EVQLLESGGGLVQPGGSLRLSCAASGIDFSNHYYMYWVRQAPGKGLEWIGSIFSGDSASTYYADSAKGRFTISRDNSKNTLYLQMNSLRAEDTAVYYCARGMSTNDWASDLWGQGTLVTVSS
VL: DIQMTQSPSSLSASVGDRVTITCQASESINSIYLAWYQQKPGKAPKLLIYRASTLASGVPSRFSGSGSGTDFTLTISSLQPEDFATYYCQQSYDWGDVENTFGGGTKVEIK

Assays:
human LILRB4 [1] = target: T1, human LILRB4 (human, UniProt Q8NHJ6 22-448); experiment: FACS
T1 sequence (Q8NHJ6 22-448): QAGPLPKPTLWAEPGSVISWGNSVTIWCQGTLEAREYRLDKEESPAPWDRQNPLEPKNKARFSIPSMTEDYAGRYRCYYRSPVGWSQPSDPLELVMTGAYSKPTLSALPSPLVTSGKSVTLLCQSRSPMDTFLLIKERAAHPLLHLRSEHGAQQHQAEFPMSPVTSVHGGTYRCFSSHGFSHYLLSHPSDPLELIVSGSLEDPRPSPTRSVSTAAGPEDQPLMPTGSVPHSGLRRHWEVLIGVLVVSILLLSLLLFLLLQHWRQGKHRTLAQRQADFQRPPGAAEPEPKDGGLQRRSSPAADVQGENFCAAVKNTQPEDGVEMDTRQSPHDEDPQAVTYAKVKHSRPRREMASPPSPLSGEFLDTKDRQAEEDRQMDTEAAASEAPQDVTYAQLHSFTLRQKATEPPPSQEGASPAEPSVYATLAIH

human LILRB4 [2] = target: T1, human LILRB4; experiment: ELISA; panel A
human LILRB4 [3] = target: T1, human LILRB4; experiment: ELISA; panel B
human LILRB4 [4] = target: T1, human LILRB4; experiment: competitive FACS; competition with NGM831
human LILRB4 [5] = target: T1, human LILRB4; experiment: competitive FACS; competition with h2-H1-D7-E5-D5

| Binder | EC50 (human LILRB4 [1]) [nM] | EC50 (human LILRB4 [2]) [nM] | EC50 (human LILRB4 [3]) [nM] | EC50 (human LILRB4 [4]) [nM] | EC50 (human LILRB4 [5]) [nM] |
| --- | --- | --- | --- | --- | --- |
| B1 | 0.849 | 0.0372 | 0.0265 | 3.67 |  |
| B2 | 1.49 |  | 0.0317 |  |  |
| B3 |  | 1.12 |  |  |  |
| B4 |  | 7.96 |  |  |  |
| B5 |  |  | 0.0286 |  | 6.33 |
| B6 |  | 0.0172 | 0.0141 |  |  |
